Test results: FireProtDB (doi:10.1021/bi00462a019)
Where “and” joins values, the source holds several entries; their conditions need not be identical. Equal entries are not always repeated.

Details: Aspergillus oryzae (strain ATCC 42149 / RIB 40), 25 °C, Fluorescence, reversible: yes, whole UniProt chain shown

B1: Guanyl-specific ribonuclease T1 wild type, P00651 (protein)
chain: MMYSKLLTLTTLLLPTALALPSLVERACDYTCGSNCYSSSDVSTAQAAGYQLHEDGETVGSNSYPHKYNNYEGFDFSVSSPYYEWPILSSGDVYSGGSPGADRVVFNENNQLAGVITHTGASGNNFVECT
With B1 the denaturant m value (pH 2.92, GdnHCl, formate 30 mM) was 2.89 kcal/mol/M, the “denaturant midpoint (higher = more stable)” value (shortened to “denaturant midpoint”) (pH 2.92, GdnHCl, formate 30 mM) was 2.78 M and the unfolding free energy (pH 2.92, GdnHCl, formate 30 mM) was 8.04 kcal/mol. For the same protein, the unfolding free energy (pH 2.92, Urea, formate 30 mM) was 6.2 kcal/mol, the denaturant m value (pH 3.02, GdnHCl, formate 30 mM) was 2.89 kcal/mol/M and the “denaturant midpoint” value (pH 3.02, GdnHCl, formate 30 mM) was 1.8 M. For the same protein, the unfolding free energy (pH 3.02, GdnHCl, formate 30 mM) was 5.2 kcal/mol, the unfolding free energy (pH 3.02, Urea, formate 30 mM) was 5.2 kcal/mol and the denaturant m value (pH 6.98, GdnHCl, MOPS 30 mM) was 3.09 kcal/mol/M and 2.58 kcal/mol/M. The “denaturant midpoint” value (pH 6.98, GdnHCl, MOPS 30 mM) was 2.99 M and 2.98 M, the unfolding free energy (pH 6.98, GdnHCl, MOPS 30 mM) was 9.24 kcal/mol and 7.7 kcal/mol and the denaturant m value (pH 9.89, GdnHCl, glycine 30 mM) was 3.27 kcal/mol/M. For the same protein, the “denaturant midpoint” value (pH 9.89, GdnHCl, glycine 30 mM) was 2.57 M, the unfolding free energy (pH 9.89, GdnHCl, glycine 30 mM) was 8.4 kcal/mol and the unfolding free energy (pH 9.89, Urea, glycine 30 mM) was 8.6 kcal/mol. For the same protein, the denaturant m value (pH 9.91, GdnHCl, glycine 30 mM) was 2.58 kcal/mol/M, the “denaturant midpoint” value (pH 9.91, GdnHCl, glycine 30 mM) was 1.36 M and the unfolding free energy (pH 9.91, GdnHCl, glycine 30 mM) was 3.52 kcal/mol.
